Test results published in US20200017598A1.

Target: mouse C5aR (mouse) (UniProt P30993)
Assay: cell-based or functional assay

UniProt P30993, sequence (P30993 other isoform, or with tags, fused parts or gaps): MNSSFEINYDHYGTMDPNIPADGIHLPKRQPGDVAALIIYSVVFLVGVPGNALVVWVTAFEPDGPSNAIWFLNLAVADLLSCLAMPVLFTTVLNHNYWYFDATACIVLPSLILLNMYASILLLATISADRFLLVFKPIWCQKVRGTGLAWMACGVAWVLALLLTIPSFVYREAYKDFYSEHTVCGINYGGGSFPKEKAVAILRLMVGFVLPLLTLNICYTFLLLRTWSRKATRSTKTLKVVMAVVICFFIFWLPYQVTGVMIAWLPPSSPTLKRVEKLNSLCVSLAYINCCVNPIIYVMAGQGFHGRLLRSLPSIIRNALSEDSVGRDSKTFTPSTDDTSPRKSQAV

## Anti-mouse C5aR mAb m20/70 (20/70 variable regions on mouse kappa and mouse IgG2a.1 constant regions) (from UniProt P01863 1-330) (antibody)
  inhibition of C5a-induced CD11b up-regulation on neutrophils (live Ly6G+ cells) in mouse whole blood stimulated with recombinant mouse C5a, flow cytometry: 0.6 µg/mL
